Target: T1, purified recombinant Flag-tagged HER2 C-terminal domain (human, UniProt P04626 988-1255)
T1 construct: HER2, human, COOH-terminal domain; C-ter is defined as 988-1255 aa in the plasmid section; The results call this protein Flag-tagged; It may be the same construct as m14; source: HEK293T, transfected, purified (antibody bead column)
Experiment: pull-down; purified GST fusion proteins and purified HER2 C-terminal domain; Glutathione sepharose 4B (GSH beads)
Conditions: both partners purified

B1: GST-T4 (domain or fragment, human, UniProt P08727 1-79, looked up)
chain: MTSYSYRQSSATSSFGGLGGGSVRFGPGVAFRAPSIHGGSGGRGVSVSSARFVSSSSSGAYGGGYGGVLTASDGLLAGN
notes: KRT19, human, T4 fragment (head domain); also called GST-T4 wt; source: E. coli, purified (Glutathione sepharose 4B column)
B1: binds.

— PMC5180104, “Interaction of cytokeratin 19 head domain and HER2 in the cytoplasm leads to activation of HER2-Erk pathway” (Scientific Reports, 2016)
